# Positions count from the first letter of the chain named.
# T1: human IL-22 (human, UniProt Q9GZX6 34-179)
# T1 sequence: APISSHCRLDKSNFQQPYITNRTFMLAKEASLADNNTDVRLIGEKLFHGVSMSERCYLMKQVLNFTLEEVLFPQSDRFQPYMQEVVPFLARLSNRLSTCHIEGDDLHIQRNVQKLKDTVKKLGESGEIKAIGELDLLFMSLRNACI
# T2: IL-26 (human, UniProt Q9NPH9)
# T2 construct: coated on the ELISA plate at 1 µg/ml; also called human IL-26
# T2 sequence (cytokine, looked up): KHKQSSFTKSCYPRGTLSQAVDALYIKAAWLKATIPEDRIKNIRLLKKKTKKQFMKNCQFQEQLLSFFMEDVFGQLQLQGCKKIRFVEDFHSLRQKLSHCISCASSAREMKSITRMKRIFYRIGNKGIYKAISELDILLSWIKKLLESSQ
# T3: biotinylated IL-22 with an N-terminal His/FLAG tag (bio.IL-22H/F) (human, UniProt Q9GZX6 34-179, biotinylated (site not stated))
# T3 construct: not shown: N-terminal His/FLAG tag
# T3 sequence: T1 sequence
# B1: 062A09 IgG (non-germlined) (antibody, V domains shown)
# VH: QVQLVESGAEVKKPGASVKVSCKASGYTFTSYGISWVRQAPGQGLEWMGWVSAYTGNTNYAQKFQGRVTMTTDTSTSTAYMELRGLRSDDTAVYYCARDRGYYDAFDIWGQGTLVTVSS
# VL: DIQMTQSPSTLSASIGDRVTITCRASEGIYHWLAWYQQKPGKAPKLLIYKASSLASGAPSRFSGSGFGTDFTLTISSLQPDDFATYYCQQMGEYNATIGGGTKLEIKR
# B2: 166B06 IgG (non-germlined) (antibody, V domains shown)
# VH: EVQLVQSGAEVKKPGASVKVSCQASGYTFSDYYIHWVRQTPGQGFEWMGWVNPDTGGTRYAQKFQGWVTMTRDMSNTTAYMELPRLRDDDTAVYYCARDLTGFDPFDIWGQGTLVTVSS
# VL: QSVLTQPPSVSVAPGKTATITCGGNNFRNKRVHWYQQRPGQAPVLVIYYDSDRPSGIPERFSGSRSGNTATLTISRVEAGDEADFYCQVWDLFNDNGVFGGGTKLTVLG
# B3: 166G05 IgG (non-germlined) (antibody, V domains shown)
# VH: B2 VH
# VL: B2 VL with L92F, F93L, N94T, N96S, V98S
# B4: 166B06 germlined IgG (antibody, V domains shown)
# VH: B2 VH with E1Q, Q23K, T40A, F45L, W67R, N76I, T77S, P84S, D88S
# VL: B2 VL with Q1S, T19R, R38K, F85Y
# B5: 166G05 germlined IgG (antibody, V domains shown)
# VH: B2 VH with E1Q, Q23K, T40A, F45L, W67R, N76I, T77S, P84S, D88S
# VL: B2 VL with Q1S, T19R, R38K, F85Y, L92F, F93L, N94T, N96S, V98S
# B6: 354A08 germlined IgG (antibody, V domains shown)
# VH: QVQLVQSGAEVKKPGASVKVSCKASGYTFTDYYMHWVRQAPGQGLEWVGWINPYTGGAFYAQKFRGRVTMTRDTSISTAYMELSRLRSDDTAVYYCAREPERFGDSTGQVWGRGTLVTVSS
# VL: QAVLTQPPSVSGAPGQRVTISCTGSSSNIGAGYGVHWYQQLPGTAPKLLIYGNSNRPSGVPDRFSGSKSGTSASLAITGLQAEDEADYYCYHWDKEQSGYVFGGGTQLTVLG
# B7: 356A11 germlined IgG (antibody, V domains shown)
# VH: B6 VH with D31N, G57S, R102K, G104D, D105S, S106D, T107D, G108S, Q109D
# VL: B6 VL with N53D, Y91Q, H92S, W93Y, K95N, E96S, Q97L
# B8: 087B03 germlined IgG (antibody, V domains shown)
# VH: EVQLVESGGGVVRPGGSLRLSCAASGFTFDDYGMNWVRQAPGKGLEWVSGVNWNGGTRDYAASVKGRFTISRDNAKNSLYLQMNSLRAEDTALYHCARGWYSGAAWNMGYWGRGTLVTVSS
# VL: QAALTQPASVSGSPGQSITISCTGASGDVGAYNFVSWYQQHPGKAPKLIIYDVNKRPSGVSNRFSGSKSGNTASLTISGLQAEDEADYYCSSYTSTFSVVFGGGTKLTVLG
# B9: 062A09 (antibody, V domains shown)
# VH: B1 VH with E6Q, G85S
# VL: B1 VL with I15V, A58V, F67S, D70E, I98F, L104V
# notes: The list MOLECULES holds only the non-germlined 062A09 IgG; also called 062A09 germlined IgG
# B10: 062G05 IgG (non-germlined) (antibody, V domains shown)
# VH: B1 VH with V51I, G85S
# VL: B1 VL with Y94W, N95K, T97A, I98F
# notes: IgG
# B11: 375G06 IgG (non-germlined) (antibody, V domains shown)
# VH: B2 VH with F103Y, P105Y, F106Y, I108R
# VL: QSVLTQPPSMSVAPGKTATITCGGNNFRNKRVHWYQQRPGQAPVLVIYYDSDRPSGIPERFSGSRSGNTATLTISRVEAGDEADFYCQVWDFLADEAMFGGGTKLTVL
# notes: IgG
# B12: 376B10 IgG (non-germlined) (antibody, V domains shown)
# VH: B2 VH with R85G, F103Y, P105Q, F106Y, D107T, I108A
# VL: B2 VL with Q88S, V89T, W90F, L92P, N94T, N96R, G97P, V98L
# notes: IgG
# B13: 367D04 IgG (non-germlined) (antibody, V domains shown)
# VH: B8 VH with H95Y, A104S, A105P, N107S, M108L, Y110H
# VL: QAVLTQPSSVSGSPGQSVTISCTGASGDVGAYNFVSWYQQHPGKTPKLIIYDVNKRPSGVSNRFSGSKSGNTASLTISRLQAEDESDYYCSSYTSRYTTEFGGGTKVTVLG
# notes: IgG
# B14: GIL45 scFv (non-germlined parent) (scFv)
# scFv: QMQLVQSGGGVVQPGRSLRLSCAASGFTFSNYGMYWVRQAPGKGLEWVAHIWYDGSNEKYADSVKGRMTVSRDNSRNTLYLQMNSLRAEDTAVYYCATEQHWITAFDIWGKGTLVTVSSGGGGSGAGGSGGGGSQSVLTQPASVSGSPGQSITISCTGTSSDVGGYNYVSWYQQHPGKAPKLMIYEGSKRPSGVSNRFSGSKSGNTASLTISGLQAEDEADYYCSSYTTRSTRVFGGGTKLTVLGAAAH
# B15: GIL68 IgG (non-germlined parent) (antibody, V domains shown)
# VH: B2 VH
# VL: B2 VL with L92S, F93S, N94T, N96R, G97P, V98L
# notes: Human IgG4 heavy chain constant domain; Cryptate labeled in the HTRF assay; also called cryptate labeled GIL68 IgG
# Biological target: T1, human IL-22
# Assay: cell-based or functional assay
IC50 (pM) of non-germlined IgG in BaF3-IL-22R proliferation assay [pM],IC50 (pM) of germlined IgG in BaF3-IL-22R proliferation assay [pM],Binder
108,,B1
109,,B2
366,,B3
,169,B4
,109,B5
,79,B6
,53,B7
,118,B8

# Biological target: T4, BSA (bovine, UniProt P02769)
# T4 construct: background wells labelled BSA; also called bovine serum albumin
# Assay: ELISA: wells labelled BSA, IgG at 1 µg/ml, HRP anti-human IgG, A450
# Method: (§1) Cross species reactivity of germlined and non-germlined optimized antibodies were determined as follows: ELISA plates (Costar, Cat. #3590) were coated overnight with 1 μg/ml of rat, mouse, or human IL-22 or human IL-26 in PBS buffer. Plates were washed with PBST buffer (0.05% Tween20 in PBS) 3 times, then blocked with 1% BSA (Sigma A8918)/PBST for 1 hr at RT. Antibodies were added at 1 μg/ml, incubated 1 hr at 25° C. […] The plates were incubated for 1 hour at 25° C., then washed with PBST, and developed with TMB (KPL, Cat. #50-76-04). Reaction was stopped with 0.18 M H₂S0₄. Plates were read at OD 450 nm.
# T4 sequence (P02769 25-607 limits assumed): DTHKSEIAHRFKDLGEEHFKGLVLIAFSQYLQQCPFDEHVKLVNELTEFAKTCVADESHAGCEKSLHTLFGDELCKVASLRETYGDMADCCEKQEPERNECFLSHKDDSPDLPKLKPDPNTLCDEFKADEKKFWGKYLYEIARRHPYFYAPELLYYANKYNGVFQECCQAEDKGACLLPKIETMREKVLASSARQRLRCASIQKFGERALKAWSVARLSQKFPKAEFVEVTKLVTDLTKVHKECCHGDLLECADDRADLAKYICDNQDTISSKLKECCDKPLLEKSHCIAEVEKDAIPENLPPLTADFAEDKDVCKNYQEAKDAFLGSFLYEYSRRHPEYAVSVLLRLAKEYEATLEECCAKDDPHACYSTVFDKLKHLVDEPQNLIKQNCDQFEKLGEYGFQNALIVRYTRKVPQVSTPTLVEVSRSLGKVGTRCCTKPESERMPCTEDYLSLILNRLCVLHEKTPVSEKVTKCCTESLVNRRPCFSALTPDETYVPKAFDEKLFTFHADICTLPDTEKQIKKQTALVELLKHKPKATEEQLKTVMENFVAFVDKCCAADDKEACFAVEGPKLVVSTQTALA
row,Binder,binding result
1,B9,no binding (tested: 1 µg/ml (single concentration))
2,B10,no binding (tested: 1 µg/ml (single concentration))
3,B4,no binding (tested: 1 µg/ml (single concentration))
4,B11,no binding (tested: 1 µg/ml (single concentration))
5,B12,no binding (tested: 1 µg/ml (single concentration))
6,B5,no binding (tested: 1 µg/ml (single concentration))
7,B6,no binding (tested: 1 µg/ml (single concentration))
8,B7,no binding (tested: 1 µg/ml (single concentration))
9,B13,no binding (tested: 1 µg/ml (single concentration))
10,B8,no binding (tested: 1 µg/ml (single concentration))

# Biological target: T2, IL-26
# Assay: ELISA: plate coated with 1 µg/ml human IL-26, IgG at 1 µg/ml, HRP anti-human IgG, A450
# Method: as §1
row,Binder,binding result
1,B9,no binding (tested: 1 µg/ml (single concentration))
2,B4,no binding (tested: 1 µg/ml (single concentration))
3,B11,no binding (tested: 1 µg/ml (single concentration))
4,B12,no binding (tested: 1 µg/ml (single concentration))
5,B5,no binding (tested: 1 µg/ml (single concentration))
6,B6,no binding (tested: 1 µg/ml (single concentration))
7,B7,no binding (tested: 1 µg/ml (single concentration))
8,B13,no binding (tested: 1 µg/ml (single concentration))
9,B8,no binding (tested: 1 µg/ml (single concentration))

# Biological target: T3, biotinylated IL-22 with an N-terminal …
# Assay: IL-22 receptor complex inhibition assay (bio.IL-22H/F binding to IL-22 receptor complex, DELFIA), scFv
# Method: Both the IL-22/IL-22R binding assay (described above) and the IL-22/IL-22 receptor complex assay (described below) were used. ScFv concentrations were titrated in order to establish the clone potencies as measured by assay IC₅₀ values. These were determined using GraphPad Prism software and four-parameter logistic equation curve fitting.
# (§2) Microtiter plates were coated with an IL-22 receptor complex antibody (1 μg/ml in PBS), and incubated for 1.5 hours at room temperature. Plates were washed three times in PBST, and blocked for 1 hour at room temperature with 2% MPBS. After a further 3 washes, diluted cell conditioned medium containing an IL-22 receptor complex was added and incubated overnight at 4° C. Crude scFv supernatants were prepared as described above. The following day, 25 μl of diluted scFv sample and 25 μl of bio.IL-22H/F (6 ng/ml) were added to the washed plates, and incubated for 1.5 hours at room temperature. Plates were washed 3 times in PBST, then binding of bio.IL-22H/F to the IL-22 receptor complex was detected with Europium-Streptavidin and the DELFIA® reagent kit (PerkinElmer). Time Resolved Fluorescence was measured using a Victor 2™ Plate Reader (Perkin Elmer).
row,IC50 [nM],Binder
1,358,B14

# Biological target: T1, human IL-22
# Assay: cell-based or functional assay
# Remark: another data set of the same source
row,IC50 of IgG in BaF3-IL-22 proliferation assay [pM],Binder
1,83,B1
2,112,B10
3,71,B2
4,97,B3
5,100,B11
6,119,B12
7,79,B6
8,53,B7
9,126,B13

# Biological target: T3, biotinylated IL-22 with an N-terminal …
# Assay: IL-22 receptor complex inhibition assay (bio.IL-22H/F binding to IL-22 receptor complex, DELFIA), IgG
# Method: Potency of purified IgG was verified in the biochemical IL-22 receptor complex inhibition assay as described below. IgG concentrations were titrated in order to obtain potency values.
# as §2
row,IC50 [nM],Binder
1,2,B15

# From US20070243589A1 (Pfizer, published 2007)
